Six sequences from the Immune Epitope Database (IEDB) can be followed below.

By Kd is commonly meant a measure of binding affinity in units of concentration.

Test [1] deals with HLA-A*26:01. Kind of test: IEDB peptide-MHC binding, purified MHC/competitive/fluorescence; filed as Kd, often an IC50 or EC50 that approximates it; ≥ and ≤ were set here for values at or beyond the usual limits of such assays. As to conditions: source organism: Homo sapiens.
Test [2] deals with HLA-A*03:01. Described as above. To be noted: source organism: Homo sapiens.
Test [3] deals with HLA-B*27:03. The test is described as above. As to conditions: source organism: Homo sapiens.
Test [4] has as its target HLA-A*02:01. Described as above. As to conditions: source organism: Homo sapiens.
Test [5] deals with HLA-B*45:06. Described as above.
Test [6] concerns the target HLA-B*15:42. The test is described as above.
For test [7], the target named is HLA-B*83:01. Described as above.
Test [8] has as its target HLA-A*32:15. The test is described as above.
In test [9] the target is HLA-C*12:03. Kind of test: IEDB peptide-MHC binding, purified MHC/direct/fluorescence; filed as Kd, often an IC50 or EC50 that approximates it; ≥ and ≤ were set here for values at or beyond the usual limits of such assays. To be noted: source organism: Homo sapiens.
The target in test [10] is HLA-A*26:02. Put plainly: IEDB peptide-MHC binding, purified MHC/competitive/fluorescence; filed as Kd, often an IC50 or EC50 that approximates it; ≥ and ≤ were set here for values at or beyond the usual limits of such assays. As to conditions: source organism: Orthomarburgvirus marburgense.
The target of test [11] is HLA-B*07:02. Kind of test: IEDB peptide-MHC binding, purified MHC/direct/fluorescence; filed as Kd, often an IC50 or EC50 that approximates it; ≥ and ≤ were set here for values at or beyond the usual limits of such assays.
The target of test [12] is HLA-B*08:01. The description is as above.
The target of test [13] is HLA-B*46:01. The description is as above.
In test [14] the target is HLA-A*01:01. The test is described as above. To be noted: source organism: Marburg virus - Musoke, Kenya, 1980.
Test [15] has as its target HLA-A*11:01. The description is as above. To be noted: source organism: Marburg virus - Musoke, Kenya, 1980.
In test [16] the target is HLA-A*02:01. The test is described as above.
The target in test [17] is HLA-A*68:02. Described as above. To be noted: source organism: Marburg virus - Musoke, Kenya, 1980.
In test [18] the target is HLA-B*15:02. The test is described as above. As to conditions: source organism: Orthomarburgvirus marburgense.
In test [19] the target is HLA-B*58:01. The test is described as above.
In test [20] the target is HLA-A*31:01. The test is described as above.
Test [21] has as its target HLA-A*69:01. The description is as above.
Test [22] deals with HLA-B*48:01. Described as above.
The target in test [23] is HLA-B*57:01. The description is as above.
Test [24] has as its target HLA-B*15:01. Described as above.
Test [25] addresses HLA-B*15:17. Described as above. To be noted: source organism: Marburg virus - Musoke, Kenya, 1980.
Test [26] concerns the target HLA-B*27:05. The test is described as above.
In test [27] the target is HLA-A*26:01. The test is described as above. As to conditions: source organism: Giardia lamblia ATCC 50803.
The target of test [28] is HLA-A*26:02. Described as above.
Test [29] addresses HLA-A*11:01. Kind of test: IEDB peptide-MHC binding, purified MHC/competitive/fluorescence; filed as Kd, often an IC50 or EC50 that approximates it; ≥ and ≤ were set here for values at or beyond the usual limits of such assays. To be noted: source organism: Influenza A virus (A/Hong Kong/1074/1999(H9N2)).
For test [30], the target named is HLA-B*15:17. Described as above. To be noted: source organism: Influenza A virus (A/Hong Kong/1074/1999(H9N2)).
Test [31] has as its target HLA-B*40:01. Kind of test: IEDB peptide-MHC binding, purified MHC/direct/fluorescence; filed as Kd, often an IC50 or EC50 that approximates it; ≥ and ≤ were set here for values at or beyond the usual limits of such assays. To be noted: source organism: Influenza A virus (A/Hong Kong/514/97(H5N1)).
Test [32] concerns the target HLA-A*03:01. The test is described as above. To be noted: source organism: Influenza A virus (A/Hong Kong/514/97(H5N1)).
Test [33] has as its target HLA-C*08:02. The test is described as above.
For test [34], the target named is HLA-B*46:01. Kind of test: IEDB peptide-MHC binding, purified MHC/competitive/fluorescence; filed as Kd, often an IC50 or EC50 that approximates it; ≥ and ≤ were set here for values at or beyond the usual limits of such assays. As to conditions: source organism: dengue virus type 1.
The target of test [35] is HLA-C*14:02. Put plainly: IEDB peptide-MHC binding, purified MHC/direct/fluorescence; filed as Kd, often an IC50 or EC50 that approximates it; ≥ and ≤ were set here for values at or beyond the usual limits of such assays. As to conditions: source organism: dengue virus type 1.
The target in test [36] is HLA-C*05:01. The description is as above. As to conditions: source organism: dengue virus type 1.
Test [37] deals with HLA-C*06:02. The test is described as above. As to conditions: source organism: dengue virus type 1.
Test [38] concerns the target HLA-A*02:01. Kind of test: IEDB peptide-MHC binding, purified MHC/competitive/radioactivity; filed as Kd, often an IC50 or EC50 that approximates it; ≥ and ≤ were set here for values at or beyond the usual limits of such assays. As to conditions: source organism: Dengue virus 2 Jamaica/1409/1983.
Test [39] concerns the target HLA-A*68:02. Described as above. As to conditions: source organism: Dengue virus 2 Jamaica/1409/1983.
Test [40] deals with HLA-A*02:06. The test is described as above. To be noted: source organism: Dengue virus 2 Jamaica/1409/1983.
Test [41] deals with HLA-A*02:17. Described as above. To be noted: source organism: Dengue virus 2 Jamaica/1409/1983.
In test [42] the target is HLA-A*02:03. Described as above. As to conditions: source organism: Dengue virus 2 Jamaica/1409/1983.
For test [43], the target named is HLA-A*30:02. Described as above. As to conditions: source organism: Dengue virus 1 Brazil/97-11/1997.
Test [44] deals with HLA-B*15:01. The test is described as above. As to conditions: source organism: Dengue virus 1 Brazil/97-11/1997.
[45] abbreviates: source organism: Marburg virus - Musoke, Kenya, 1980.
Setting [46] is: source organism: Influenza A virus (A/Hong Kong/514/97(H5N1)).
The mark [47] stands for this setting: source organism: dengue virus type 1.

Take FLNPVIYTF: the Kd was no less than 20000 nM in test [1]; no less than 20000 nM in test [2]; no less than 20000 nM in test [3]; 1.6 nM in [4]; no less than 5000 nM in test [5] (source organism: Homo sapiens); no less than 5000 nM in test [6] (source organism: Homo sapiens). Also, the dissociation constant (Kd) in test [7] (source organism: Homo sapiens) amounted to 240 nM; in test [8] (source organism: Homo sapiens), 24 nM; in test [9] it was 29 nM.

With NQQVTNSKY, the Kd in test [10], in test [11] (setting [45]), in test [12] (source organism: Orthomarburgvirus marburgense), in test [13] (setting [45]), in test [14] and in test [15] was no less than 20000 nM each time. Further, the Kd was no less than 20000 nM in test [16] (setting [45]); no less than 20000 nM in [17]; 87 nM in test [18]; no less than 20000 nM in test [19] (setting [45]); no less than 20000 nM in test [20] (setting [45]); no less than 20000 nM in [21] (setting [45]). Moreover, the Kd is no less than 20000 nM in [22] (setting [45]); no less than 20000 nM in test [23] (setting [45]); 80.3 nM in test [24] (setting [45]); no less than 20000 nM in [25]; no less than 20000 nM in test [26] (setting [45]).

For ITSGHSWAY, the dissociation constant Kd is 28 nM in [27] and 34 nM in test [28] (source organism: Giardia lamblia ATCC 50803).

Turning to VSDGGPNLY, the Kd in test [29] is no less than 20000 nM; in [30], 192 nM; in test [11] (setting [46]), no less than 20000 nM; in test [12] (source organism: Influenza A virus H3N2) it was no less than 20000 nM; in test [13] (setting [46]), no less than 20000 nM; in test [31], no less than 20000 nM. Also, the Kd in test [32] is no less than 20000 nM; in test [16] (setting [46]) it was no less than 20000 nM; in [19] (setting [46]), 553 nM; in [20] (setting [46]) it was no less than 20000 nM; in test [21] (setting [46]), no less than 20000 nM; in test [22] (setting [46]), no less than 20000 nM. The dissociation constant (Kd) was 16700 nM in test [23] (setting [46]), 86 nM in test [33] (source organism: Influenza A virus (A/Hong Kong/1074/1999(H9N2))), 2990 nM in [24] (setting [46]) and no less than 20000 nM in test [26] (setting [46]).

For the sequence FTMRLLSPV, the Kd in [34] is 15 nM; in test [5] (setting [47]), no less than 5000 nM; in test [6] (setting [47]) it was no less than 5000 nM; in test [7] (setting [47]), no less than 5000 nM; in [8] (setting [47]) it was 116 nM; in [35], 98 nM. Further, the Kd in test [36] is 2290 nM; in [33] (setting [47]) it was 316 nM; in test [37], no less than 20000 nM; in [38] it was 1.56 nM; in test [39] it was 0.78 nM; in [40], 4.32 nM. For the same sequence, the dissociation constant (Kd) in [41] is 29.8 nM; in test [42], 3.44 nM.

Take SVKKDLISY: the equilibrium dissociation constant (Kd) is 2 nM in test [28] (source organism: dengue virus type 3), 26.1 nM in test [43] and 5.96 nM in test [44].
